Source: PMC2600739 (The Journal of Cell Biology, 2008)

Target: the molecule itself
Experiment: cross-linking

B1: JAM-L–HA (p513-JAM-L-HA vector), wild type (natural protein, human, UniProt Q86YT9 20-394, looked up)
chain: LNDLNVSPPELTVHVGDSALMGCVFQSTEDKCIFKIDWTLSPGEHAKDEYVLYYYSNLSVPIGRFQNRVHLMGDILCNDGSLLLQDVQEADQGTYICEIRLKGESQVFKKAVVLHVLPEEPKELMVHVGGLIQMGCVFQSTEVKHVTKVEWIFSGRRAKEEIVFRYYHKLRMSVEYSQSWGHFQNRVNLVGDIFRNDGSIMLQGVRESDGGNYTCSIHLGNLVFKKTIVLHVSPEEPRTLVTPAALRPLVLGGNQLVIIVGIVCATILLLPVLILIVKKTCGNKSSVNSTVLVKNTKKTNPEIKEKPCHFERCEGEKHIYSPIIVREVIEEEEPSEKSEATYMTMHPVWPSLRSDRNNSLEKKSGGGMPKTQQAF
In the case of B1, the “stoichiometry N” value is reported as 2.
